Reference: publication PMC5662737, “Structural and mechanistic insights into ATRX-dependent and -independent functions of the histone chaperone DAXX” (Nature Communications, 2017)

Legend:
[1] = molecular target: T1, human DAXX four-helix bundle domain (4HB, residues 50–144) (human, UniProt Q9UER7 50-144); test: ITC; 17 injections of 2.2 μl ATRX DBM peptide (1.5 mM) into 200 µl DAXX 4HB or mutants (150 µM); 20 °C; 20 mM Tris pH 7.5, 0.3 M NaCl; single site-binding model; conditions: both partners purified
T1 construct: DAXX (death-domain-associated protein), human, N-terminal four-helix bundle, residues 50-144; Expressed and purified 'in a similar way' as the fusion protein (His6-SUMO removed with Ulp1); also called DAXX 4HB; hDAXX 4HB; source: E. coli BL21(DE3)-RIL, purified (Ni-NTA, heparin, Superdex 200); not shown: His6-SUMO, N-terminal, cleaved
T1 sequence (looked up): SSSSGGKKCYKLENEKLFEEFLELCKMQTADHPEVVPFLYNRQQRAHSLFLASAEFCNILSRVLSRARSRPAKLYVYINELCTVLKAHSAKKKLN

[2] = molecular target: T2, human DAXX 4HB F87L (tumor mutation) (human, UniProt Q9UER7 50-144, F87L); test: as above; conditions: both partners purified
T2 construct: DAXX, human, four-helix bundle, residues 50-144, with the tumor mutation F87L; also called DAXX F87L; source: E. coli BL21(DE3)-RIL, purified (Ni-NTA, heparin, Superdex 200); not shown: His6-SUMO, N-terminal, cleaved
T2 sequence (looked up): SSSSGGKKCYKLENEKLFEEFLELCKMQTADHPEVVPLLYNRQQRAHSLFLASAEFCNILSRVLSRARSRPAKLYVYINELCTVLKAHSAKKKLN

hDAXX 4HB F87A = molecular target: T3, hDAXX 4HB F87A (Homo sapiens); test: ITC
T3 chain: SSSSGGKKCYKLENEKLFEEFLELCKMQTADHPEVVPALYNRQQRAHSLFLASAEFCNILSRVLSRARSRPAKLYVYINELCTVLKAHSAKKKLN

[3] = molecular target: T4, human DAXX four-helix bundle domain (4HB, residues 50–144) (human, UniProt Q9UER7 50-144); test: ITC
T4 chain: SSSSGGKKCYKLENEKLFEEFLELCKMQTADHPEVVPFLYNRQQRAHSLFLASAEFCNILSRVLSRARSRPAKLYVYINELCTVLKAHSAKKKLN

B1: human ATRX DAXX-binding motif (DBM) peptide, wild type (peptide, UniProt P46100 1265-1288, looked up)
peptide: NDPENRIAKKMLLEEIKANLSSDE
notes: The limits 1265–1288 are printed for the DBM of the fusion construct; also called ATRX DBM; hATRX DBM; source: synthetic peptide (Tufts University Peptide Core Facility)
Kd [1]: 0.9 µM | Kd [2]: 33.8 µM | Kd (hDAXX 4HB F87A): 7.5 µM

B2: human ATRX DBM peptide I1280A (peptide, UniProt P46100 1265-1288, looked up)
peptide: NDPENRIAKKMLLEEAKANLSSDE
notes: ATRX, human, DBM, residues 1265-1288, with I1280A; Limits as for m4; also called ATRX I1280A mutant; source: synthetic peptide (Tufts University Peptide Core Facility)
fold weaker binding than wild-type ATRX DBM [1]: ~14 fold | Kd [3]: 12.9 µM
